The test addresses α-Synuclein preformed fibrils (α-Syn PFF) (mouse, UniProt O55042 1-140). The test can be described thus: ELISA. (An ELISA detects its analyte on a solid surface through an enzyme-linked reagent.)

Results on two molecules are retold here after doi:10.1101/2024.02.19.580982 (bioRxiv, 2024).

B1: ΔNBD hNOD2-Fc (Fc fusion)
chain: MGEEGGSASHDEEERASVLLGHSPGCEMCSQEAFQAQRSQLVELLVSGSLEGFESVLDWLLSWEVLSWEDYEGFHLLGQPLSHLARRLLDTVWNKGTWACQKLIAAAQEAQADSQSPKLHGCWDPHSLHPARDLQSHRPAIVRRLHSHVENMLDLAWERGFVSQYECDEIRLPIFTPSQRARRLLDLATVKANGLAAFLLQHVQELPVPLALPLEAATCKKYMAKLRTTVSAQSRFLSTYDGAETLCLEDIYTENVLEVWADVGMAGPPQKSPATLGLEELFSTPGHLNDDAADVPPALLRHLFNCGRPGNSPMARLLPTMCIQASEGKDSSVAALLQKAEPHNLQITAAFLAGLLSREHWGLLAECQTSEKALLRRQACARWCLARSLRKHFHSIPPAAPGEAKSVHAMPGFIWLIRSLYEMQEERLARKAARGLNVGHLKLTFCSVGPTECAALAFVLQHLRRPVALQLDYNSVGDIGVEQLLPCLGVCKALYLRDNNISDRGICKLIECALHCEQLQKLALFNNKLTDGCAHSMAKLLACRQNFLALRLGNNYITAAGAQVLAEGLRGNTSLQFLGFWGNRVGDEGAQALAEALGDHQSLRWLSLVGNNIGSVGAQALALMLAKNVMLEELCLEENHLQDEGVCSLAEGLKKNSSLKILKLSNNCITYLGAEALLQALERNDTILEVWLRGNTFSLEEVDKLGCRDTRLLL
As for B1, the affinity, expressed as Kd, was 0.42 µM. This counts as sub-micromolar.

B2: ΔCARD hNOD2-Fc (Fc fusion)
chain: CKKYMAKLRTTVSAQSRFLSTYDGAETLCLEDIYTENVLEVWADVGMAGPPQKSPATLGLEELFSTPGHLNDDADTVLVVGEAGSGKSTLLQRLHLLWAAGQDFQEFLFVFPFSCRQLQCMAKPLSVRTLLFEHCCWPDVGQEDIFQLLLDHPDRVLLTFDGFDEFKFRFTDRERHCSPTDPTSVQTLLFNLLQGNLLKNARKVVTSRPAAVSAFLRKYIRTEFNLKGFSEQGIELYLRKRHHEPGVADRLIRLLQETSALHGLCHLPVFSWMVSKCHQELLLQEGGSPKTTTDMYLLILQHFLLHATPPDSASQGLGPSLLRGRLPTLLHLGRLALWGLGMCCYVFSAQQLQAAQVSPDDISLGFLVRAKGVVPGSTAPLEFLHITFQCFFAAFYLALSADVPPALLRHLFNCGRPGNSPMARLLPTMCIQASEGKDSSVAALLQKAEPHNLQITAAFLAGLLSREHWGLLAECQTSEKALLRRQACARWCLARSLRKHFHSIPPAAPGEAKSVHAMPGFIWLIRSLYEMQEERLARKAARGLNVGHLKLTFCSVGPTECAALAFVLQHLRRPVALQLDYNSVGDIGVEQLLPCLGVCKALYLRDNNISDRGICKLIECALHCEQLQKLALFNNKLTDGCAHSMAKLLACRQNFLALRLGNNYITAAGAQVLAEGLRGNTSLQFLGFWGNRVGDEGAQALAEALGDHQSLRWLSLVGNNIGSVGAQALALMLAKNVMLEELCLEENHLQDEGVCSLAEGLKKNSSLKILKLSNNCITYLGAEALLQALERNDTILEVWLRGNTFSLEEVDKLGCRDTRLLL
Take B2: the Kd (usually the constant that tells how readily two partners part at equilibrium) amounted to 16.4 µM.
